The source of these data is patent US20070010016A1.

The test concerns the target Adenovirus 5 receptor (on HeLa cells). The experiment in a line: cell-based or functional assay.

With “Adenovirus 5 fiber protein (from UniProt P11818 1-581)”, the transduction of HeLa cells with Av1LacZ4 in the presence of competitor (beta-galactosidase positive cells, percent of control) was 0.1 to 1 mug/ml.
